In test [1] the test system is finishing swine. In words: Urinary urea nitrogen excretion in finishing swine after subcutaneous injection. Format: in vivo. Conditions: b137 study, FIGS. 3 and 4; barrows, 3 micrograms/kg/day injected twice per day; all time periods for 15 days. The method, then:
(§1) The microparticles prepared in accordance with the previous examples were used to determine the effect of somatogenin (LY293404) concentration in different PLA/PGA microparticle concentrations. Payout characteristics were measured by urinary urea nitrogen excretion and serum growth hormone levels in finishing swine. The microparticle formulations were placed in suspension, using 2% W/V sodium carboxyl-methyl-cellulose 330 (NaCMC) in Nano-pure II purified water. The suspension was injected subcutaneously in the flank. […] Urinary nitrogen reduction is a measurement of growth hormone which is stimulated by somatogenin release from microparticles. […] The reduction was the greatest for the highest loaded (25%) microparticles, and lowest for the lowest (5%) loaded microparticles. […] The vertical bars in the figures represent the relative standard deviations. The microparticles prepared in accordance with the previous examples were used to determine the payout characteristics of somatogenin (LY293404) when administered in different PLA/PLG microparticle formulations as measured by urinary urea nitrogen excretion and serum growth hormone levels in finishing swine. The microparticle formulations were placed in suspension, using 2% W/V sodium carboxyl-methyl-cellulose 330 (NaCMC) in Nano-pure II purified water. The suspension was injected subcutaneously in the flank. […]

The subject of test [2] is finishing swine. The test is described as follows: Serum growth hormone levels in finishing swine after subcutaneous injection. Conditions: b137 study, FIGS. 3 and 4; barrows, 3 micrograms/kg/day injected twice per day; all time periods for 15 days. Format: in vivo. The procedure: as §1

Results on one molecule are retold here after patent publication US5635216A, “Microparticle compositions containing peptides, and methods for the preparation thereof” (Eli Lilly and Company, priority 1993, dated 1997).

B1: 4-methylhippuroyl (1) porcine GHRH (2-76)--OH (peptide)
chain: GADAIFTNNYRRVLTQLSARRLLQDILSRQQGERNQEQGARVRLGRQVDSLWADQRQLALESILATLLQEHRNSQG
modifications: 4-methylhippuroyl N-terminus
notes: analog of a natural porcine GHRH prohormone
As to B1, in the test on finishing swine [1], the urinary urea excretion entry was “reduction”. Besides, the “serum GH levels” value with finishing swine [2] is recorded as “elevation”.
